{
  "source": "the DeepSol protein solubility set",
  "data": [
    {"assay": "soluble on expression in E. coli; label from the status in PepcDB or PDB records", "values": [
      {"sequence": "MRVDLNSDLGESFGRYKLGLDEEVMKYITSANVACGWHAGDPLVMRKTVRLAKENDVQVGAHPGYPDLMGFGRRYMKLTPEEARNYILYQVGALYAFAKAEGLELQHVKPHGALYNAMVKEEDLARAVIEGILDFDKDLILVTLSNSRVADIAEEMGLKVAHEVFADRAYNPDGTLVPRGRPGAVIEDKEEIAERVISMVKDGGIRAINGEWVDLKVDTICVHGDNPKAVEITSYIRKVLEEEGVKIVPMKEFIR", "soluble on expression in E. coli": "soluble"},
      {"sequence": "MRGVVGVLALQGDFREHKEALKRLGIEAKEVRKKEHLEGLKALIVPGGESTTIGKLAREYGIEDEVRKRVEEGSLALFGTCAGAIWLAKEIVGYPEQPRLGVLEAWVERNAFGRQVESFEEDLEVEGLGSFHGVFIRAPVFRRLGEGVEVLARLGDLPVLVRQGKVLASSFHPELTEDPRLHRYFLELAGV", "soluble on expression in E. coli": "soluble"},
      {"sequence": "MSNFMVENQTEQVSIFLEDAINLITNYVNYHTLPSLLEETPAGNERYYKGLLASMRRLLVFCEEGQDACFVLLNSQPFRKTAAEKILYKIYHQVIAEFFSPKSDHWYENSRSAYTGKNSIVFQQTPPASLEQVMKSLEGKFQLMREELEYYETDYQTKMLHKY", "soluble on expression in E. coli": "not soluble"},
      {"sequence": "MAIPKIASYPLPVSLPTNKVDWRIDASRAVLLIHDMQEYFVHYFDSQAEPIPSLIKHIQQLKAHAKQAGIPVVYTAQPANQDPAERALLSDFWGPGLSEETAIIAPLAPESGDVQLTKWRYSAFKKSPLLDWLRETGRDQLIITGVYAHIGILSTALDAFMFDIQPFVIGDGVADFSLSDHEFSLRYISGRTGAVKSTQQACLEIAAQHSKLTGLSLRTMQHDVAAALNLSVDEVDVQENLLFLGLDSIRAIQLLEKWKAQGADISFAQLMEHVTLQQWWQTIQANLHQPCSA", "soluble on expression in E. coli": "not soluble"},
      {"sequence": "MDLFIKKRIKAIQKGDQNAYADLVDLYKDKIYRLCYRMLGNRHEAEDAAQEAFIRAYIHIDTYNPEMKFSTWLYRIATNLTIDKLRKRKPDVYLDEEVGGTDGLTMQAQLPSREASPEEAVESLELQETVQRAIEQLPEKYRSVIVLKYMEDLSLQEISEILGLPVGTVKTRLHRGREALRRQLGHL", "soluble on expression in E. coli": "not soluble"},
      {"sequence": "MGSDKIHHHHHHTEGWFMPFDNWLYQLQNADPVEISSSGFEIAVIDYSKDGSESGEYSPEEIKIMVDAGVVPVAYVNIGQAEDYRFYWKESWYTNTPEWLGEEDPAWPGNYFVKYWYNEWKEIVFSYLDRVIDQGFKGIYLDRIDSFEYWAQEGVISRRSAARKMINFVLEIAEYVRERKPDMLIIPQNGENILDFDDGQLASTVSGWAVENLFYLKTIPLEENETKSRLEYLIRLNRKGKFILSVDYVDDGSDSFENISRILDYYEKAKRNGCIPYAARSDLELDEMNVIEGIQPPEALKDYESRTYR", "soluble on expression in E. coli": "soluble"},
      {"sequence": "MSNQLFDAYFTAPAMREIFSDRGRLQGMLDFEAALARAEASAGLVPHSAVAAIEAACQAERYDTGALANAIATAGNSAIPLVKALGKVIATGVPEAERYVHLGATSQDAMDTGLVLQLRDALDLIEADLGKLADTLSQQALKHADTPLVGRTWLQHATPVTLGMKLAGVLGALTRHRQRLQELRPRLLVLQFGGASGSLAALGSKAMPVAEALAEQLKLTLPEQPWHTQRDRLVEFASVLGLVAGSLGKFGRDISLLMQTEAGEVFEPSAPGKGGSSTMPHKRNPVGAAVLIGAATRVPGLLSTLFAAMPQEHERSLGLWHAEWETLPDICCLVSGALRQAQVIAEGMEVDAARMRRNLDLTQGLVLAEAVSIVLAQRLGRDRAHHLLEQCCQRAVAEQRHLRAVLGDEPQVSAELSGEELDRLLDPAHYLGQARVWVARAVSEHQRFTA", "soluble on expression in E. coli": "soluble"},
      {"sequence": "MSLIDIHSHIIPNIDDGSKSLEMSLEMLKRAEESGTKKIIATPHFFKGYWTENYNSVKDKVKELNKLAKENNLNIEIYPGQEVFFNNYILEDFKLGDIGTLGESRYMLIEFPMDKIYFQKAIDEIYELKIKGITPVIAHPERYVDFINNPEEINQFIDEGYLFQLNGGSLTGLFGKEVKKTAELFLENNLYSFIGSDAHSNGNRNTSLKEACEVANSISRGASRRFEANGLALLNNEKIVFQGEGHHHHHH", "soluble on expression in E. coli": "soluble"}
    ]}
  ]
}
